The text below walks through data of US7053177B1, “Random peptides that bind to gastro-intestinal tract (GIT) transport receptors and related methods” (Cytogen Corporation, priority 1997, dated 2006).

The nature of data set [1]: Peptide stability in simulated intestinal fluid (SIF). To be noted: rank of relative stability to SIF. The class given is in vitro ADME. The protocol: Peptide (3.25 mg) was dissolved in 3.25 ml of 10,000 fold diluted SIF solution at 37° C. Aliquots (0.7 ml) of the digestion solution were then withdrawn at <1 min, 1h, 3h, and 21h or 24h. The samples were quickly passed through a syringe filter (Millipore Millex-GV 0.22 μm, part# SLGV025LS, lot# H2BM95250) and 300 μL of the filtered solution was immediately injected onto a Hewlett-Packard HPLC system equipped with a C-8 column (Applied Biosystems column and guard column: column-p/n 0711-0023 Spheri-5 ODS 5 μm, 220×4.6 mm). The products were eluted at 1.5 ml/min using an acetonitrile-water gradient. The major fluorescent peaks were collected, lyopholized and identified by MS analysis.

In data set [2] the target is T1, recombinant HPT1 receptor domain (human intestinal peptide-associated transporter HPT1, amino acid residues … (human, UniProt Q12864 29-273)).
T1 construct: purified under denaturing conditions; coated on plates
T1 sequence: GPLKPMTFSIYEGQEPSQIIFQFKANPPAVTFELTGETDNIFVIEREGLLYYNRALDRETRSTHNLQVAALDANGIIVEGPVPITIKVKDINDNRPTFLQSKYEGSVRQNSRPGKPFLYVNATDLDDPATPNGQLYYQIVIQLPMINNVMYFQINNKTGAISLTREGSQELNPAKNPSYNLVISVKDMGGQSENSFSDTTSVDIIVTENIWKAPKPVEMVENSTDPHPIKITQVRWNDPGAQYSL
Description: phage ELISA, OD on HPT1 over OD on BSA. The protocol:
6.6. Receptor ELISA Procedure 96 well plates were coated overnight with GIT receptor, BSA and, optionally, IDE (insulin degrading enzyme, an irrelevant His-fusion protein)or hTF. The plates were blocked for one hour with 0.5% BSA-PBS. After clarification, the amplified phage were diluted 1:100 in 1% BSA plus 0.05% Tween 20 in PBS and added to the plates. Following incubation of the plates on a rotator for 1 to 2 hours, the plates were washed 5 times with 1% BSA plus 0.05% Tween 20 in PBS. […] After the plates were washed 5 times, as described above, TMB substrate was added to the wells. The plates were read at 650 nm absorbance.
For orientation: In an ELISA, binding on a coated surface is turned into a signal by an enzyme label.

For data set [3], the target named is bovine serum albumin (bovine) (UniProt P02769). Description: phage ELISA on coated BSA.
Chain of bovine serum albumin (bovine) (P02769 25-607 limits assumed): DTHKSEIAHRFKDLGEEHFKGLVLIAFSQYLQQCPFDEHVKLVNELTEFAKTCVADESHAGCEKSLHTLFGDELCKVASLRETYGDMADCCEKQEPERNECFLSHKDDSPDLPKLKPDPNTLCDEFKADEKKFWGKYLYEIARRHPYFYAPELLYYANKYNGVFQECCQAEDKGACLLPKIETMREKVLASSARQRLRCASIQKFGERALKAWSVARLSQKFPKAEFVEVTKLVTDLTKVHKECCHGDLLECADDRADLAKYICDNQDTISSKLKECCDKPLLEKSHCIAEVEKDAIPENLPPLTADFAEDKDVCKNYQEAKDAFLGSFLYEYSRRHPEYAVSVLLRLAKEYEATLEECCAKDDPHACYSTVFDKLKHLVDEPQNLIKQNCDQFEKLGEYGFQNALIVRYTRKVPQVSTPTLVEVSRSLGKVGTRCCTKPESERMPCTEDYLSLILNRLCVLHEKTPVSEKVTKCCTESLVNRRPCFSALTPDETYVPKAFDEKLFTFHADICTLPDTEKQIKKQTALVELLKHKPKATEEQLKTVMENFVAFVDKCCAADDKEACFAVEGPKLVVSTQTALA
The target in data set [4] is T2, recombinant D2H receptor domain (human D2H transporter, amino acid residues 387-685), His-tag fusion protein (human) (UniProt Q07837).
T2 sequence: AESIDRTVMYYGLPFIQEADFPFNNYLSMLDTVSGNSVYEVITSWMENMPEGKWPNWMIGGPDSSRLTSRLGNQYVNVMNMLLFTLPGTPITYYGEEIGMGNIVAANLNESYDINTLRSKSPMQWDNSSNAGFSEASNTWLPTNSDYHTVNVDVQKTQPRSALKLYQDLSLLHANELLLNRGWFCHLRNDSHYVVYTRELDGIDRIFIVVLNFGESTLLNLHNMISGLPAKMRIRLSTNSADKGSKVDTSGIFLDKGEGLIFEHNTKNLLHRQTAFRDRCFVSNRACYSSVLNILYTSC
Description: phage ELISA on coated D2H.

The target in data set [5] is T2, recombinant D2H receptor domain (human D2H transporter, amino acid residues 387-685), His-tag fusion protein (human). Put plainly: phage ELISA, OD on D2H over OD on BSA.
In data set [6] the target is T3, recombinant HPT1 receptor domain (human intestinal peptide-associated transporter HPT1, amino acid residues 29-273), His-tag fusion protein (human) (UniProt Q12864).
T3 sequence: T1 sequence
Description: phage ELISA, OD on HPT1 over OD on BSA.

The target in data set [7] is T3, recombinant HPT1 receptor domain (human intestinal peptide-associated transporter HPT1, amino acid residues 29-273), His-tag fusion protein (human). Description: phage ELISA on coated HPT1.

Square brackets hold non-standard residues; d marks the D form. Ends that are not written are not given here. Peptide text beside a SMILES is read from it. * marks the point of attachment. Dansyl = CN(C)c1cccc2c(S(=O)(=O)*)cccc12

As to `C[C@@H](O)[C@H](NC(=O)[C@@H](N)CCCCNS(=O)(=O)c1cccc2c(N(C)C)cccc12)C(=O)N[C@@H](CCCNC(=N)N)C(=O)N[C@@H](CCCCN)C(=O)N[C@@H](CO)C(=O)N[C@@H](CO)C(=O)N[C@@H](CCCNC(=N)N)C(=O)N[C@@H](CO)C(=O)N[C@@H](CC(N)=O)C(=O)N1CCC[C@H]1C(=O)N[C@@H](CCCNC(=N)N)C(=O)NCC(=O)N[C@@H](CCCNC(=N)N)C(=O)N[C@@H](CCCNC(=N)N)C(=O)N[C@@H](Cc1c[nH]cn1)C(=O)N1CCC[C@H]1C(=O)NCC(N)=O` [ZElan031] (H-K(Dansyl)TRKSSRSNPRGRRHPG-NH2), in data set [1], the “Rel. Stab.” value was 3.

Consider `C[C@@H](O)[C@H](NC(=O)[C@@H](N)CCCCNS(=O)(=O)c1cccc2c(N(C)C)cccc12)C(=O)N[C@@H](CCCNC(=N)N)C(=O)N[C@@H](CCCCN)C(=O)N[C@@H](CO)C(=O)N[C@@H](CO)C(=O)N[C@H](CCCNC(=N)N)C(=O)N[C@@H](CO)C(=O)N[C@@H](CC(N)=O)C(=O)N1CCC[C@H]1C(=O)N[C@@H](CCCNC(=N)N)C(=O)NCC(=O)N[C@H](CCCNC(=N)N)C(=O)N[C@@H](CCCNC(=N)N)C(=O)N[C@@H](Cc1c[nH]cn1)C(=O)N1CCC[C@H]1C(=O)NCC(N)=O` [ZElan054, H2N-K(dns)TRKSSrSNPRGrRHPG-CONH2] (H-K(Dansyl)TRKSS[dR]SNPRG[dR]RHPG-NH2), for which, in data set [1], the “Rel. Stab.” value is recorded as 2.

As to `C[C@@H](O)[C@H](NC(=O)[C@@H](N)CCCCNS(=O)(=O)c1cccc2c(N(C)C)cccc12)C(=O)N[C@H](CCCNC(=N)N)C(=O)N[C@@H](CCCCN)C(=O)N[C@@H](CO)C(=O)N[C@@H](CO)C(=O)N[C@H](CCCNC(=N)N)C(=O)N[C@@H](CO)C(=O)N[C@@H](CC(N)=O)C(=O)N1CCC[C@H]1C(=O)N[C@H](CCCNC(=N)N)C(=O)NCC(=O)N[C@H](CCCNC(=N)N)C(=O)N[C@H](CCCNC(=N)N)C(=O)N[C@@H](Cc1c[nH]cn1)C(=O)N1CCC[C@H]1C(=O)NCC(N)=O` [ZElan053, H2N-K(dns)TrKSSrSNPrGrrHPG-CONH2] (H-K(Dansyl)T[dR]KSS[dR]SNP[dR]G[dR][dR]HPG-NH2), in data set [1], the “Rel. Stab.” value was 1.

B1: phage HCA3 (peptide)
peptide: RHISEYSFANSHLMGGESKRKGCGINGSFSPTCPRSPTPAFRRT
modifications: cysteine pairing not given here; also: displayed as N-terminal pIII fusion on M13 phage
notes: M13 phage displaying this insert as N-terminal pIII fusion; whole phage in the ELISA; not shown: M13 pIII display protein and the vector-encoded flanking residues
For the molecule B1, in data set [2], the HPT1/BSA was found to be 1 ratio. For the same molecule, the OD in data set [3] is 0.038 OD 650 nm.

Turning to SQGSKQCMQYRTGRLTVGSEYGCGMNPARHATPAYPARLLPRYR [phage DCX11], the results for the OD in data set [4] and in data set [3] were 0.222 OD 650 nm and 0.071 OD 650 nm, respectively. Besides, the D2H/BSA in data set [5] was determined as 3.

As for SREEANWDGYKREMSHRSRFWDATHLSRPRRPANSGDPN (peptide, not shown: large carriers, also: displayed as N-terminal pIII fusion on M13 phage) [phage HAX9], the HPT/BSA in data set [6] was found to be 5. Besides, the figures for the OD in data set [3] and in data set [7] were 0.075 OD 650 nm and 0.382 OD 650 nm, respectively.

B2: phage HAX42 (peptide, not shown: large carriers)
peptide: SDHALGTNLRSDNAKEPGDYNCCGNGNSTGRKVFNRRRPSAIPT
modifications: cysteine pairing not given here; also: displayed as N-terminal pIII fusion on M13 phage
In the case of B2, the HPT/BSA in data set [6] was 5. The figures for the OD in data set [3] and in data set [7] were 0.071 OD 650 nm and 0.32 OD 650 nm, respectively.

B3: phage HAX40 (peptide)
peptide: REFAERRLWGCDDLSWRLDAEGCGPTPSNRAVKHRKPRPRSPAL
modifications: cysteine pairing not given here; also: displayed as N-terminal pIII fusion on M13 phage
notes: M13 phage displaying this insert as N-terminal pIII fusion; whole phage in the ELISA; also called H44; not shown: M13 pIII display protein and the vector-encoded flanking residues
B3: the HPT/BSA in data set [2] worked out at 15 ratio. The same molecule came in with an OD in data set [3] of 0.065 OD 650 nm.

With RYSGLSPRDNGPACSQEATLEGCGAQRLMSTRRKGRNSRPGWTL [phage DCX42], the OD in data set [4] worked out at 0.158 OD 650 nm; in data set [3], 0.065 OD 650 nm. For the same molecule, the D2H/BSA in data set [5] came out at 2.
